The labels stand for the following.
B1: vS07_23E04 (designed binder)
chain: MRGSHHHHHHGSDLGKKLLQAARAGQLDEVRELLKAGADVNAKDQEGITPLHVAAHQGHLEIVEVLLKAGADVNAKDVWGRTPLHLAAWRGHLEIVEVLLKAGADVNAKDHAGATPLHAAALSGHLEIVEVLLKAGADVNAQDKSGKTPADLAARAGHQDIAEVLQKAA
notes: also called R3c
B2: vS07_12C06 (designed binder)
chain: B1 chain with Q45R, I48K, H56Q, Q57E, R90I, H111V, A112S, S123H, K134N
notes: also called R1b; Rb1
B3: vS07_29B10 (designed binder)
chain: B1 chain with Q45R, V53L, H56Q, Q57H, R90Q, H111L, A119V, S123Y
notes: also called R3b

We go through 3 molecules from US20220235103A1 (Molecular Partners, published 2022).

Numbering of substitutions follows the chain as printed.

One assay addresses SARS-CoV-2 spike protein A222V (SARS-CoV-2, UniProt P0DTC2 14-1273). The assay can be described thus: cell-based or functional assay.
Consider B1, for which the “VSV Pseudotype Neutralization Assay IC50” value stood at 19.5 ng/mL.
Still for that read-out and setting: next, B2: 4.6 ng/mL; B3: 3.3 ng/mL.

The target of the next assay is SARS-CoV-2 spike protein G446V (SARS-CoV-2, UniProt P0DTC2 14-1273). The assay can be described thus: cell-based or functional assay.
Take B1: the “VSV Pseudotype Neutralization Assay IC50” value was 2.3 ng/mL.
Consider B2, for which the “VSV Pseudotype Neutralization Assay IC50” value stood at 1.8 ng/mL.
Consider B3, for which the “VSV Pseudotype Neutralization Assay IC50” value worked out at 0.7 ng/mL.

The next assay concerns the target SARS-CoV-2 spike protein G476S (SARS-CoV-2, UniProt P0DTC2 14-1273). In words: cell-based or functional assay.
As to B1, the “VSV Pseudotype Neutralization Assay IC50” value turned out to be 29 ng/mL.
On to B2, for which the “VSV Pseudotype Neutralization Assay IC50” value was found to be 3.7 ng/mL.
With B3, the “VSV Pseudotype Neutralization Assay IC50” value was 2.3 ng/mL.
